What was measured:
3×MBT domain of L3MBTL1 = assay: Triple SILAC pull-down, 3xMBT/3xMBTD355N ratio (cytoplasmic, nuclear and chromatin fractions of 293T cells); format: binding, human; details: for 3xMBT/D355N UNC Heavy: experiment with UNC0638 in heavy SILAC media; for 3xMBT/D355N UNC Light: experiment with UNC0638 in light SILAC media;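 for all read-outs here: proteins quantified with MaxQuant, requiring at least two unique peptides and quantification in both label directions, normalized to the mean of proteins from a digested loading control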
G9a and GLP = biological target: T1, G9a and GLP (Homo sapiens, UniProt Q96KQ7+Q9H9B1); assay: Triple SILAC pull-down after UNC0638 treatment of 293T cells, DMSO/UNC0638 ratio of protein captured by 3×MBT; format: cell-based; details: for Relative to UNC0638 UNC Heavy: UNC0638 in heavy SILAC media; for Relative to UNC0638 UNC Light: UNC0638 in light SILAC media; for Relative to UNC0638 Average: average of UNC Light and UNC Heavy experiments;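 for all read-outs here: mass spectrometry (Q-Exactive) SILAC quantitation, DMSO/UNC0638 ratio computed after subtracting 3×MBTD355N mutant pull-down background, only proteins with at least twofold 3×MBT over mutant signal considered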
T1 construct: endogenous in cells; host or cells: HEK 293T
T1 sequence (Q96KQ7 2-1210 limits assumed): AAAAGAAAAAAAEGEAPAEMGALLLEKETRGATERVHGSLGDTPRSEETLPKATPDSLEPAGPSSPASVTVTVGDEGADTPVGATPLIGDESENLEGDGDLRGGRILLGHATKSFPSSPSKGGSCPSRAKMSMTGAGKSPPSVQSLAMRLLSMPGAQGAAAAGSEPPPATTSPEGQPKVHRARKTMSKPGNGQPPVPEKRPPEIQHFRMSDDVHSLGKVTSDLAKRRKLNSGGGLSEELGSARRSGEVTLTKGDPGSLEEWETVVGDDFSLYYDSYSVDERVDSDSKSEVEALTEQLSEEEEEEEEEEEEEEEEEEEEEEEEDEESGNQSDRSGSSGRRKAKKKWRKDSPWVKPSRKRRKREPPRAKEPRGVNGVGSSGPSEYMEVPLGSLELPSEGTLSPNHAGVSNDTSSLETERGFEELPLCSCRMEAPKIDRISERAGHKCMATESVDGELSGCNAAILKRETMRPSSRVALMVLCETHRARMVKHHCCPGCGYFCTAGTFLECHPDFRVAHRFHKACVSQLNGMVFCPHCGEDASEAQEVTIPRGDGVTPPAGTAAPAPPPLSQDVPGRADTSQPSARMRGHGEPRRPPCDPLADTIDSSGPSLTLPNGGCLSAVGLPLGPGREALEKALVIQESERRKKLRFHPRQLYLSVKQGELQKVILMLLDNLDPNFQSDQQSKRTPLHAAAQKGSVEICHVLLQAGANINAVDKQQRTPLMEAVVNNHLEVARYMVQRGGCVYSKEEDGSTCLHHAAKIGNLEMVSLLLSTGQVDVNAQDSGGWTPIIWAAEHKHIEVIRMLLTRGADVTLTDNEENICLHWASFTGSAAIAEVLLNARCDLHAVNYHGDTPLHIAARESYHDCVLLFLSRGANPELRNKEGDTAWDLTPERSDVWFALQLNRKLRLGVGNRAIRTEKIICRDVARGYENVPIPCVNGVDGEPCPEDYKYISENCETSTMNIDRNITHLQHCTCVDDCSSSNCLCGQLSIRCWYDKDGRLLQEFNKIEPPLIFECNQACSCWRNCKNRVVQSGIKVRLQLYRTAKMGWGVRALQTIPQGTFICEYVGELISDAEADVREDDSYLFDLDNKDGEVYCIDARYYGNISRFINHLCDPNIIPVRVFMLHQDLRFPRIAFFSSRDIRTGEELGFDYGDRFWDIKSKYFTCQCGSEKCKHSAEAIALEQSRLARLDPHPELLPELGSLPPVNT
T1 sequence (Q9H9B1 2-1298 limits assumed): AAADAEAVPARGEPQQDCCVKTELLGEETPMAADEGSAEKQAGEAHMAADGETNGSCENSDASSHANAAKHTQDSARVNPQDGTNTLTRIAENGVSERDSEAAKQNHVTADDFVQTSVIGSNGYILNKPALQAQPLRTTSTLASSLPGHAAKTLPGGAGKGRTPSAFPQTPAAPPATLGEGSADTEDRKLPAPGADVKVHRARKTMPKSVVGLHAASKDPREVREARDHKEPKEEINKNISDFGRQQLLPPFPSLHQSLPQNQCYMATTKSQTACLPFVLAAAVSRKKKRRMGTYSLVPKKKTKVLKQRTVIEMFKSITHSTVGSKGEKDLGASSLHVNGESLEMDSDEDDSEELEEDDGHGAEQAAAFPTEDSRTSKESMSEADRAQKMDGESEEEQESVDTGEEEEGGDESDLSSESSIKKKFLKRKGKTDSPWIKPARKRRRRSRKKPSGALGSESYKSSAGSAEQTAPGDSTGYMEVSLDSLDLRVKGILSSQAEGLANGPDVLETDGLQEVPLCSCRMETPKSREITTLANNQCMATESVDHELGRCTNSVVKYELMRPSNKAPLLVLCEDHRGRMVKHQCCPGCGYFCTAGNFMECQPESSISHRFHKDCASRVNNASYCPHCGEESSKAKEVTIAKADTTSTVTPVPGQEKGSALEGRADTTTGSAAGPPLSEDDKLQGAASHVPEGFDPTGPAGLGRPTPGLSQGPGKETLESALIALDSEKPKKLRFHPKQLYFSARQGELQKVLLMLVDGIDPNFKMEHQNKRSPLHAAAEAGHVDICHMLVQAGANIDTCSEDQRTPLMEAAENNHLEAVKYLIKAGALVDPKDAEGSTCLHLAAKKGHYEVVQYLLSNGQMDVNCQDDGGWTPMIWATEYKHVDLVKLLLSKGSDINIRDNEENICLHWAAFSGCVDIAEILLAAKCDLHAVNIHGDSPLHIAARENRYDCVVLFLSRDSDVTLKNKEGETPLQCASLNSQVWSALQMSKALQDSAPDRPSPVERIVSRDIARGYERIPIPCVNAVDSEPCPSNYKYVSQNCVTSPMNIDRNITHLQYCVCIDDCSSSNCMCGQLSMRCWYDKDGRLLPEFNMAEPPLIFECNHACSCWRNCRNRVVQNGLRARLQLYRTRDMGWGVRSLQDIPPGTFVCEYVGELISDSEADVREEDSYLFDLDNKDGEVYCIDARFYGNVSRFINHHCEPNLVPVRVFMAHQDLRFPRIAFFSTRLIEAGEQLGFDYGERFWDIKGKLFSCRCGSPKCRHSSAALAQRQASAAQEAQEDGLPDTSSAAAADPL

[1] = SILAC ratio, pull-down 3xMBT vs 3xMBTD355N
[2] = SILAC ratio DMSO/UNC0638 of protein pulled down with 3xMBT
[3] = SILAC ratio 3xMBT vs 3xMBTD355N pull-down, 293T cells, all values in log base 2
[4] = SILAC ratio DMSO relative to UNC0638, pull-down with 3xMBT, all values in log base 2

Row | Substance | Relative to UNC0638 UNC Heavy (G9a and GLP; [2]) [log base 2] | Relative to UNC0638 UNC Light (G9a and GLP; [2]) [log base 2] | Relative to UNC0638 Average (G9a and GLP) [log base 2] | Candidate G9a/GLP target (G9a and GLP; reduced association with 3xMBT after UNC0638 treatment) | Protein Ratios DMSO/UNC0638 (G9a and GLP; SILAC ratio of protein captured by 3xMBT, 293T cells treated 24 hours with UNC0638 at 2.5 μM or DMSO) | Relative to UNC0638 UNC Heavy (G9a and GLP; [4]) [log base 2] | Relative to UNC0638 UNC Light (G9a and GLP; [4]) [log base 2] | Relative to UNC0638 Average (G9a and GLP; all values in log base 2) [log base 2] | 3xMBT/D355N UNC Heavy (3×MBT domain of L3MBTL1; [1]) [log base 2] | 3xMBT/D355N UNC Light (3×MBT domain of L3MBTL1; [1]) [log base 2] | Protein Ratios 3xMBT/D355N (3×MBT domain of L3MBTL1; SILAC ratio, pull-down by 3xMBT vs 3xMBTD355N, 293T cells) | 3xMBT/D355N UNC Heavy (3×MBT domain of L3MBTL1; [3]) [log base 2] | 3xMBT/D355N UNC Light (3×MBT domain of L3MBTL1; [3]) [log base 2]
1 | CTBP2 | 0.50 | 0.15 | 0.32 | – | – | – | – | – | 1.97 | 1.74 | – | – | –
2 | PSME3 | 0.62 | −0.01 | 0.31 | – | – | – | – | – | 1.70 | 1.89 | – | – | –
3 | NPM1 | 0.24 | 0.11 | 0.17 | – | – | – | – | – | 1.24 | 1.27 | – | – | –
4 | NUMA1 | 0.90 | −0.32 | 0.29 | – | – | – | – | – | 0.83 | 3.33 | – | – | –
5 | CSDA | 0.30 | 0.73 | 0.52 | ✓ | – | – | – | – | 3.85 | 3.10 | – | – | –
6 | HNRNPAB | 0.09 | 0.32 | 0.20 | – | – | – | – | – | 4.00 | 4.21 | – | – | –
7 | HDGF | 0.23 | 0.22 | 0.23 | – | – | – | – | – | 1.65 | 2.78 | – | – | –
8 | UHRF1 | – | – | – | – | – | 0.54 | −0.45 | 0.04 | – | – | – | 3.68 | 2.24
9 | ELAVL1 | 0.21 | 0.36 | 0.29 | – | – | – | – | – | 1.93 | 2.42 | – | – | –
10 | CKAP5 | 0.24 | 0.06 | 0.15 | – | – | – | – | – | 2.10 | 1.30 | – | – | –
11 | SNRNP70 | – | – | – | – | – | 0.22 | −0.01 | 0.11 | – | – | – | 3.26 | 3.57
12 | ABCF1 | – | – | – | – | – | 0.22 | −0.04 | 0.09 | – | – | – | 2.36 | 2.94

More lines, main results first:

Row | Relative to UNC0638 UNC Heavy (G9a and GLP; [2]) [log base 2] | Relative to UNC0638 UNC Light (G9a and GLP; [2]) [log base 2] | Relative to UNC0638 Average (G9a and GLP) [log base 2] | Candidate G9a/GLP target (G9a and GLP; reduced association with 3xMBT after UNC0638 treatment) | Protein Ratios DMSO/UNC0638 (G9a and GLP; SILAC ratio of protein captured by 3xMBT, 293T cells treated 24 hours with UNC0638 at 2.5 μM or DMSO) | Relative to UNC0638 UNC Heavy (G9a and GLP; [4]) [log base 2] | Relative to UNC0638 UNC Light (G9a and GLP; [4]) [log base 2] | Relative to UNC0638 Average (G9a and GLP; all values in log base 2) [log base 2] | Substance | 3xMBT/D355N UNC Heavy (3×MBT domain of L3MBTL1; [1]) [log base 2] | 3xMBT/D355N UNC Light (3×MBT domain of L3MBTL1; [1]) [log base 2] | Protein Ratios 3xMBT/D355N (3×MBT domain of L3MBTL1; SILAC ratio, pull-down by 3xMBT vs 3xMBTD355N, 293T cells) | 3xMBT/D355N UNC Heavy (3×MBT domain of L3MBTL1; [3]) [log base 2] | 3xMBT/D355N UNC Light (3×MBT domain of L3MBTL1; [3]) [log base 2]
13 | 0.22 | 0.28 | 0.25 | – | – | – | – | – | HNRNPU | 2.16 | 2.39 | – | – | –
14 | 0.10 | 0.26 | 0.18 | – | – | – | – | – | MCM6 | 2.48 | 2.53 | – | – | –
15 | 0.64 | −0.05 | 0.30 | – | – | – | – | – | THOC2 | 2.50 | 2.01 | – | – | –
16 | – | – | – | – | 1.4 | – | – | – | ATP-dependent DNA helicase Q1 | – | – | 18.8 | – | –
17 | 0.11 | 0.17 | 0.14 | – | – | – | – | – | PRPF8 | 2.51 | 2.50 | – | – | –
18 | 0.07 | 0.25 | 0.16 | – | – | – | – | – | EIF4G1 | 3.18 | 3.31 | – | – | –
19 | – | – | – | – | – | 0.04 | −1.45 | −0.70 | METTL3 | – | – | – | 3.18 | −0.51
20 | 0.19 | 0.26 | 0.22 | – | – | – | – | – | SNRNP200 | 2.08 | 3.14 | – | – | –
21 | 0.19 | 0.07 | 0.13 | – | – | – | – | – | CFL1 | 2.43 | 3.06 | – | – | –
22 | 0.16 | 0.11 | 0.14 | – | – | – | – | – | SNRPA | 4.73 | 5.10 | – | – | –

From patent US20140274782A1, “AFFINITY REAGENTS AND METHODS FOR DETECTION, PURIFICATION, AND PROTEOMIC ANALYSIS OF METHYLATED PROTEINS” (The Board of Trustees of the Leland Stanford Junior …, priority 2013, published 2014)
